Test [1] deals with T1, human GLP-1 receptor (human, UniProt P43220 24-463). In words: cell-based or functional assay.
Test [2] addresses T2, human glucagon receptor (human, UniProt P47871 26-477). In words: cell-based or functional assay.
For test [3], the target named is T1, human GLP-1 receptor. In words: displacement of [125I]-GLP-1-(7-36)NH2 from BHK membranes with human GLP-1R, SPA, no serum albumin. (In general: Loss of bound radioactivity is the signal in a displacement assay; it reports binding, not function.)
Test [4] addresses T2, human glucagon receptor. As to the kind of experiment: displacement of [125I]-glucagon from BHK membranes with human glucagon receptor, SPA, no serum albumin.

For orientation: IC50 means the midpoint of a concentration-inhibition curve. A higher IC50 goes with weaker potency.

Starred links: 1 amine or outer side, 2 acyl side, 3 side chain; linkers in the order of their positions; H or OH if unused. Non-standard residues stand in square brackets, D forms with d. Groups on a side chain read outwards from the residue. No end group written: not given here. *: point of attachment. C18 diacid = O=C(O)CCCCCCCCCCCCCCCCC(=O)*; γGlu = O=C(O)[C@H](CCC(=O)[*:2])N[*:1]; AEEA = NCCOCCOCC(=O)O; Aib = CC(C)(N)C(=O)O

T2 sequence (P47871 26-477): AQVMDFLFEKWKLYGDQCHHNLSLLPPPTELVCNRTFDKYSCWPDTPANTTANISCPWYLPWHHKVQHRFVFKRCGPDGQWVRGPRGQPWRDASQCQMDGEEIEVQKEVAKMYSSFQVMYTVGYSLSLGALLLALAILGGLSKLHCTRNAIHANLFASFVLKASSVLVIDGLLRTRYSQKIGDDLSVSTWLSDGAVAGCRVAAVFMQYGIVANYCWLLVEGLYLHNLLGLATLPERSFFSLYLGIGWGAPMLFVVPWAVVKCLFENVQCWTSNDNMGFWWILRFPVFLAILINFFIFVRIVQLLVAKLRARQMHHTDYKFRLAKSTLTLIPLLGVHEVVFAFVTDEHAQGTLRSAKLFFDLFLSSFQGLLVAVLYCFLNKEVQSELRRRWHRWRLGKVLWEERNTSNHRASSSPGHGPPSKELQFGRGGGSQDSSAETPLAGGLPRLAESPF

B1: N^ε28-[(4S)-4-carboxy-4-[[(4S)-4-carboxy-4-[[2-[2-[2-[[2-[2-[2-[[(4S)-4-carboxy-4-(17-carboxyheptadecanoylamino)butanoyl]amino]ethoxy]ethoxy]acetyl]amino]ethoxy … (peptide)
peptide: H[Aib]QGTFTSDYSKYLDARRARDFVAWLIK([γGlu-γGlu-AEEA-AEEA-γGlu-C18 diacid])T-NH2
modifications: N-terminus assumed
SMILES: CC[C@H](C)[C@H](NC(=O)[C@H](CC(C)C)NC(=O)[C@H](Cc1c[nH]c2ccccc12)NC(=O)[C@H](C)NC(=O)[C@@H](NC(=O)[C@H](Cc1ccccc1)NC(=O)[C@H](CC(=O)O)NC(=O)[C@H](CCCNC(=N)N)NC(=O)[C@H](C)NC(=O)[C@H](CCCNC(=N)N)NC(=O)[C@H](CCCNC(=N)N)NC(=O)[C@H](C)NC(=O)[C@H](CC(=O)O)NC(=O)[C@H](CC(C)C)NC(=O)[C@H](Cc1ccc(O)cc1)NC(=O)[C@H](CCCCN)NC(=O)[C@H](CO)NC(=O)[C@H](Cc1ccc(O)cc1)NC(=O)[C@H](CC(=O)O)NC(=O)[C@H](CO)NC(=O)[C@@H](NC(=O)[C@H](Cc1ccccc1)NC(=O)[C@@H](NC(=O)CNC(=O)[C@H](CCC(N)=O)NC(=O)C(C)(C)NC(=O)[C@@H](N)Cc1c[nH]cn1)[C@@H](C)O)[C@@H](C)O)C(C)C)C(=O)N[C@@H](CCCCNC(=O)CC[C@H](NC(=O)CC[C@H](NC(=O)COCCOCCNC(=O)COCCOCCNC(=O)CC[C@H](NC(=O)CCCCCCCCCCCCCCCCC(=O)O)C(=O)O)C(=O)O)C(=O)O)C(=O)N[C@H](C(N)=O)[C@@H](C)O
notes: also called Chem. 32; Chem 32
With B1, the “GLP-1R EC50 (pM) [Assay (I)(a)], CRE luciferase reporter, BHK cells” value in test [1] came out at 2 pM. In addition, in test [2], the “GlucagonR EC50 (pM), [Assay (I)(b)], CRE luciferase reporter, BHK cells” value amounted to 7 pM. The IC50 in test [3] amounted to 0.3 nM; in test [4] it was 0.9 nM.

B2: N^ε28-[(4S)-4-carboxy-4-[[(4S)-4-carboxy-4-[[2-[2-[2-[[2-[2-[2-[[(4S)-4-carboxy-4-(17-carboxyheptadecanoylamino)butanoyl]amino]ethoxy]ethoxy]acetyl]amino]ethoxy … (peptide)
peptide: H[Aib]QGTFTSDYSKYLDLRRARDFVAWLIK([γGlu-γGlu-AEEA-AEEA-γGlu-C18 diacid])T-NH2
modifications: N-terminus assumed
SMILES: CC[C@H](C)[C@H](NC(=O)[C@H](CC(C)C)NC(=O)[C@H](Cc1c[nH]c2ccccc12)NC(=O)[C@H](C)NC(=O)[C@@H](NC(=O)[C@H](Cc1ccccc1)NC(=O)[C@H](CC(=O)O)NC(=O)[C@H](CCCNC(=N)N)NC(=O)[C@H](C)NC(=O)[C@H](CCCNC(=N)N)NC(=O)[C@H](CCCNC(=N)N)NC(=O)[C@H](CC(C)C)NC(=O)[C@H](CC(=O)O)NC(=O)[C@H](CC(C)C)NC(=O)[C@H](Cc1ccc(O)cc1)NC(=O)[C@H](CCCCN)NC(=O)[C@H](CO)NC(=O)[C@H](Cc1ccc(O)cc1)NC(=O)[C@H](CC(=O)O)NC(=O)[C@H](CO)NC(=O)[C@@H](NC(=O)[C@H](Cc1ccccc1)NC(=O)[C@@H](NC(=O)CNC(=O)[C@H](CCC(N)=O)NC(=O)C(C)(C)NC(=O)[C@@H](N)Cc1c[nH]cn1)[C@@H](C)O)[C@@H](C)O)C(C)C)C(=O)N[C@@H](CCCCNC(=O)CC[C@H](NC(=O)CC[C@H](NC(=O)COCCOCCNC(=O)COCCOCCNC(=O)CC[C@H](NC(=O)CCCCCCCCCCCCCCCCC(=O)O)C(=O)O)C(=O)O)C(=O)O)C(=O)N[C@H](C(N)=O)[C@@H](C)O
notes: also called Chem. 33; Chem 33
On to B2, for which the “GLP-1R EC50 (pM) [Assay (I)(a)], CRE luciferase reporter, BHK cells” value in test [1] came to 7 pM. Further, the “GlucagonR EC50 (pM), [Assay (I)(b)], CRE luciferase reporter, BHK cells” value in test [2] was determined as 8 pM. For the same molecule, the IC50 in test [3] was 2.3 nM; in test [4], 6.9 nM.

The record behind these values is patent US20170101454A1 (Novo Nordisk, published 2017).
